B1: Protein TRANSPORT INHIBITOR RESPONSE 1 (Arabidopsis thaliana (Mouse-ear cress)), Q570C0 (parent)
chain: MQKRIALSFPEEVLEHVFSFIQLDKDRNSVSLVCKSWYEIERWCRRKVFIGNCYAVSPATVIRRFPKVRSVELKGKPHFADFNLVPDGWGGYVYPWIEAMSSSYTWLEEIRLKRMVVTDDCLELIAKSFKNFKVLVLSSCEGFSTDGLAAIAATCRNLKELDLRESDVDDVSGHWLSHFPDTYTSLVSLNISCLASEVSFSALERLVTRCPNLKSLKLNRAVPLEKLATLLQRAPQLEELGTGGYTAEVRPDVYSGLSVALSGCKELRCLSGFWDAVPAYLPAVYSVCSRLTTLNLSYATVQSYDLVKLLCQCPKLQRLWVLDYIEDAGLEVLASTCKDLRELRVFPSEPFVMEPNVALTEQGLVSVSMGCPKLESVLYFCRQMTNAALITIARNRPNMTRFRLCIIEPKAPDYLTLEPLDIGFGAIVEHCKDLRRLSLSGLLTDKVFEYIGTYAKKMEMLSVAFAGDSDLGMHHVLSGCDSLRKLEIRDCPFGDKALLANASKLETMRSLWMSSCSVSFGACKLLGQKMPKLNVEVIDERGAPDSRPESCPVERVFIYRTVAGPRFDMPGFVWNMDQDSTMRFSRQIITTNGL

Variants of: B1
Settings: with skp1b_arath SKP1B

| Variant | effect of a mutation on the interaction |
| --- | --- |
| P10A | decreasing interaction |

Reference: IntAct's records for PubMed 10398681
